In paper PMC4802596, “Using the β-glucosidase catalyzed reaction product glucose to improve the ionic liquid tolerance of β-glucosidases” (Biotechnology for Biofuels, 2016):

Columns and labels:
[1] = tested on: O=[N+]([O-])c1ccc(O[C@@H]2O[C@H](CO)[C@@H](O)[C@H](O)[C@H]2O)cc1; assay: purified protein; conditions: 50 mM potassium phosphate pH 7.2, 52 °C, 5 min, text b17 prints a different Km than Tables 1-3
[2] = tested on: O=[N+]([O-])c1ccc(O[C@@H]2O[C@H](CO)[C@H](O)[C@H](O)[C@H]2O)cc1; assay: purified protein; conditions: 50 mM potassium phosphate pH 7.2, 52 °C, 5 min

## H0HC94 (Agrobacterium tumefaciens 5A)
[1]
  Km: 3.09 ± 0.40 mM
  kcat: 278 ± 4 s⁻¹
  kcat/Km: 89900 M⁻¹ s⁻¹
[2]
  Km: 12.93 ± 2.00 mM
  kcat: 215 ± 7 s⁻¹
  kcat/Km: 16600 M⁻¹ s⁻¹
